Assay [1] deals with T1, Human CLEC-7A (Dectin-1) (human, UniProt Q9BXN2-2 66-201, limits assumed).
T1 construct: Bought protein; also called C-type lectin domain family 7 member A
T1 sequence (looked up): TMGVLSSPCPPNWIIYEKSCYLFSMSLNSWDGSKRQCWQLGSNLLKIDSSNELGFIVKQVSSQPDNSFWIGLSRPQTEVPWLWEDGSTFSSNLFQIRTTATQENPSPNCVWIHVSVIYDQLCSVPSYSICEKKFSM
The assay can be described thus: IgG binding ELISA on coated antigen, absorbance at 450 nm.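 Note: specificity panel of related human receptors, coated alongside human LOX1 as the binding positive control, with an isotype human IgG1-TM antibody setting the nonspecific background.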

In assay [2] the target is T2, Human CLEC-1A (human, UniProt Q8NC01 74-280, limits assumed).
T2 construct: Bought protein; also called C-type lectin domain family 1 member A
T2 sequence (looked up): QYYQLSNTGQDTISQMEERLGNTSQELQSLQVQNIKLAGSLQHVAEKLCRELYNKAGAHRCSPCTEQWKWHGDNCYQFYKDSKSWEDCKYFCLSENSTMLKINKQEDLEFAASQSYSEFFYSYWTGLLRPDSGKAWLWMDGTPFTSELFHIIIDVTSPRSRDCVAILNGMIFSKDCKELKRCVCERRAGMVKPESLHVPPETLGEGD
The assay is described as above.

The target of assay [3] is T3, Human CLEC-4L (DC-SIGN) (human, UniProt Q9NNX6 62-404).
T3 construct: Bought protein; also called C-type lectin domain family 4 member L
T3 sequence (looked up): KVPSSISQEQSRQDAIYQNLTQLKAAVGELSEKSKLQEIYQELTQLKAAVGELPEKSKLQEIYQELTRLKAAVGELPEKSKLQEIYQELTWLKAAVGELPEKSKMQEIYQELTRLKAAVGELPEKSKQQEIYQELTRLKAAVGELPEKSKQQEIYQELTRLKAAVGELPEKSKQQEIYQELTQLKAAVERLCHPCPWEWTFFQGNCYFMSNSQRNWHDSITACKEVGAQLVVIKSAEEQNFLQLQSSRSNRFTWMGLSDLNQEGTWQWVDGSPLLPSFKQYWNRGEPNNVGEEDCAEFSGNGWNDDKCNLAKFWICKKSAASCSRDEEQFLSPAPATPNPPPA
The assay is described as above.

In assay [4] the target is T4, Human CLEC-1B (CLEC-2) (human, UniProt Q9P126 58-229, limits assumed).
T4 construct: Bought protein; also called C-type lectin domain family 1 member B
T4 sequence (Q9P126 58-229 limits assumed): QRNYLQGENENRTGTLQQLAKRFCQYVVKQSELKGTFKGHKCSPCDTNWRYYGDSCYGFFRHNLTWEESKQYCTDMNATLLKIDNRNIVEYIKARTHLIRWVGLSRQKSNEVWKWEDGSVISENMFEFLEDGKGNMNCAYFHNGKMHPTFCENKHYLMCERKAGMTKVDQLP
Described as above.

Assay [5] addresses T5, Human SR-A1 (MSR) (human, UniProt P21757 77-451).
T5 construct: Bought protein; also called Macrophage scavenger receptor types I and II
T5 sequence (looked up): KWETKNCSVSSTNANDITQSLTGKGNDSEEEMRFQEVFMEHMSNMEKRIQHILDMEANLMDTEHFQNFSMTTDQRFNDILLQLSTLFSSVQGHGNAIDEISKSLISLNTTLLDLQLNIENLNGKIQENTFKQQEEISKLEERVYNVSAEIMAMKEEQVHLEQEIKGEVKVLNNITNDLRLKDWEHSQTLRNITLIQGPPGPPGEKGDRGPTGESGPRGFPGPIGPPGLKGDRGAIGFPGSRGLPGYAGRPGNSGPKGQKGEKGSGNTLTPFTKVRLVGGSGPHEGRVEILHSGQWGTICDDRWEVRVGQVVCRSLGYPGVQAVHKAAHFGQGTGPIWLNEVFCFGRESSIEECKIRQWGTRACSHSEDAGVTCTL
The description is as above.

The target in assay [6] is T6, Human SR-B3 (CD36) (human, UniProt P16671 30-439).
T6 construct: Bought protein; also called Platelet glycoprotein 4
T6 sequence (P16671 30-439 limits assumed): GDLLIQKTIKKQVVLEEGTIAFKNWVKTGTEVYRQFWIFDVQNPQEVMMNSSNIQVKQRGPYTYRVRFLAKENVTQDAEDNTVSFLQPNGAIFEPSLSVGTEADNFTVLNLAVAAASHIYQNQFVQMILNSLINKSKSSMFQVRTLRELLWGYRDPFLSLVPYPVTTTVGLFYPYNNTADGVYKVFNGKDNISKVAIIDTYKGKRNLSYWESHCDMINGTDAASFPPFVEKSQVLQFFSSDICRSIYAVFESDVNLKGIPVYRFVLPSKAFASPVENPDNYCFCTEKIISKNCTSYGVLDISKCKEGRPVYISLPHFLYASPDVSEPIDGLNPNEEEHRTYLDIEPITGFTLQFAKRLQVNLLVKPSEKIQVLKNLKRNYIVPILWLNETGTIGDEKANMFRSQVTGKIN
The assay is described as above.

The target of assay [7] is T7, mouse LOX1-(FlagHis) extracellular domain (mouse, UniProt Q9EQ09 55-363).
T7 construct: extracellular domain
T7 sequence (Q9EQ09 55-363): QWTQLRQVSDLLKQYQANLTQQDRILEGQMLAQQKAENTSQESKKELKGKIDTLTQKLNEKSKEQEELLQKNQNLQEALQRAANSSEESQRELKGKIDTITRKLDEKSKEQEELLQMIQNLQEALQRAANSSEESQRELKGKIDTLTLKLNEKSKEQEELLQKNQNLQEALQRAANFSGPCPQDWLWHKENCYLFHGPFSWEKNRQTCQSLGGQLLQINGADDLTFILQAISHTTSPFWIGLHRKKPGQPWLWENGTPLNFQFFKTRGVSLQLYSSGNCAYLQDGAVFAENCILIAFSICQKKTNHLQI
The assay can be described thus: IgG binding ELISA on coated antigen, europium anti-human IgG detection. (In general: An ELISA detects its analyte on a solid surface through an enzyme-linked reagent.)

For assay [8], the target named is T8, rat LOX1-(FlagHis) extracellular domain (rat, UniProt O70156 55-364).
T8 construct: extracellular domain
T8 sequence (O70156 55-364): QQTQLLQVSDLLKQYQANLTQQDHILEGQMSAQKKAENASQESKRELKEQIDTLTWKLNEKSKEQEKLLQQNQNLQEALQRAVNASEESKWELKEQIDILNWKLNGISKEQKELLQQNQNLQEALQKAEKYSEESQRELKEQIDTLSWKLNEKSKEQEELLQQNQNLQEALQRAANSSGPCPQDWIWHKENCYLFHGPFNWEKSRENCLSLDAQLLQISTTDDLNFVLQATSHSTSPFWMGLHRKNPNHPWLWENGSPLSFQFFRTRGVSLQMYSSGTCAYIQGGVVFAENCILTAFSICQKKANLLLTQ
The description is as above.

In assay [9] the target is T9, rabbit LOX1-(FlagHis) extracellular domain (rabbit, UniProt Q9XTA8 55-274).
T9 construct: extracellular domain
T9 sequence (Q9XTA8 55-274): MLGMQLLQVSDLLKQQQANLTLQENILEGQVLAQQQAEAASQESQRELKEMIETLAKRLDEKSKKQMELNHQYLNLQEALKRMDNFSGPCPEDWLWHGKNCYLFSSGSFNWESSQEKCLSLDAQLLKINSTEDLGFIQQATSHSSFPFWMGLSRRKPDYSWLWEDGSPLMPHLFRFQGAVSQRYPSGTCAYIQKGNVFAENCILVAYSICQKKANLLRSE
The description is as above.

The target in assay [10] is T10, human LOX1 on cells (human LOX1 transfected CHO TREX cells) (human, UniProt P78380 1-273). The assay can be described thus: cell-based or functional assay.
Assay [11] has as its target T11, cynomolgus LOX1-(FlagHis) extracellular domain (cynomolgus monkey, UniProt A0A2K5VQ73 76-291).
T11 construct: extracellular domain; Made in HEK293 EBNA cells; also called cynoLOX1; cyLOX
The assay can be described thus: Biacore, antibody captured on protein G, LOX1 ECD as analyte.

For assay [12], the target named is T10, human LOX1 on cells (human LOX1 …). Description: competition with DyLight 649 AGE-BSA on hLOX1 CHO TREX cells (FMAT), mean.
Assay [13] has as its target T12, recombinant human LOX1 (R&D Systems) (human, UniProt P78380 61-273). The assay can be described thus: competition with biotin CRP on immobilised recombinant hLOX1 (DELFIA), mean.
The target of assay [14] is T13, human LOX1 SNP K167N variant on cells (K167N SNP transfected CHO TREX cells) (human, UniProt P78380 1-273).
T13 construct: whole, on cells; also called hLOX1 K167N; K167N hLOX1 CHO
Description: competition with DyLight 649 oxLDL on K167N hLOX1 CHO TREX cells (FMAT), mean.

The target of assay [15] is T10, human LOX1 on cells (human LOX1 …). The assay can be described thus: competition with DyLight 649 oxLDL on human LOX1 CHO TREX cells, FMAT.
For assay [16] the target is unchanged. The assay can be described thus: competition with DyLight 649 oxLDL on hLOX1 CHO TREX cells (FMAT), mean; mean of n = 3.
Assay [17] deals with T12, recombinant human LOX1 (R&D Systems). Description: competition with biotin CRP on plate-bound recombinant human LOX1, DELFIA.
For assay [18], the target named is T13, human LOX1 SNP K167N variant on cells …. Description: competition with DyLight 649 oxLDL on human LOX1 K167N CHO TREX cells, FMAT.

B1: LX6960073_gl IgG1-TM (antibody, V domains shown)
VH: EVQLVESGGGLVQPGRSLRLSCAASGFTSDDYAMHWVRQAPGKGLEWVSGISWNSGSIGYADSVKGRFTISRDNAKNSLYLQMNGLRAEDTAVYYCAREGSWNYDALDIWGQGTMVTVSS
VL: QSALTQPASVSGSPGQPITISCTGTSSDVGGYNYVSWYQQHPGKAPKLMIYDVSKRPSGVSNRFSGSKSGNTASLTISGLQAEDEADYYCMGGMGRSTNWVFGGGTKLTVL
notes: Whole human IgG1-TM, germlined
Turning to B1, the binding result in [1], in [2], in assay [3], in assay [4], in assay [5] and in assay [6] was “no binding” throughout. The binding result in [7], in [8] and in assay [9] was “no binding (tested: 10 µg/mL (single concentration))” throughout.

B2: LX5140110 IgG1-TM (antibody, V domains shown)
VH: QVQLVQSGAEVKKPGASVKVSCKVSGYTLTELSMHWVRQAPGKGLEWMGGFDPEDFKYHTHQKFQGRVTMTEDTSTDTAYMELSSLRSEDTAVYYCALVWGTQGKGVRGWDYYYGMDVWGQGTTVTVSS
VL: QSVVTQPPSVSGAPGQRVTISCTGSSSNIGAGYDVHWYQQLPGTAPKLLIYGNSNRPSGVPDRFSGSKSGTSASLAITGLQAEDEADYYCQSYDSSLSGWVFGGGTKLTVL
notes: Whole human IgG1-TM (L234F/L235E/P331S); also called LOX514110; LOX514_110
One may read the Kd as the equilibrium constant for the complex coming apart. As a reminder, the koff is the first-order rate constant of dissociation. Low values mean slow dissociation, high ones fast dissociation. In general, kon refers to a measure of how fast the partners come together. A higher kon goes with faster complex formation. One may read the IC50 as the midpoint of a concentration-inhibition curve. Turning to B2, the “ROS ASSAY (IC50, mean)” value in assay [10] is 1.98 nM. Also, the “oxLDL/hLOX1 CHO Internalisation (IC50, mean)” value in assay [10] was determined as 0.312 nM. In assay [11], the Kd came to 0.154 nM. The koff in [11] is 0.000168 s⁻¹. For the same molecule, the kon in assay [11] was 1.09e+06 M⁻¹ s⁻¹. For the same molecule, the binding result in [1], in assay [2], in assay [3], in assay [4], in assay [5] and in [6] was “no binding” throughout. The binding result in assay [7] is “no binding (tested: 10 µg/mL (single concentration))”; in assay [8], “no binding (tested: 10 µg/mL (single concentration))”; in assay [9], “binds”. The IC50 in [12] was determined as 0.0207 nM; in assay [13], 5.02 nM; in assay [14], 0.492 nM; in [16], 0.105 nM. Besides, the “IC50 (read off the curve)” value is roughly 1 nM in [15], roughly 5 nM in assay [17] and roughly 0.4 nM in [18].

B3: LX5140108 IgG1-TM (antibody, V domains shown)
VH: QVQLVQSGAEVKKPGASVKVSCKVSGYTLTELSMHWVRQAPGKGLEWMGGFDPEDWSNHVSQKFQGRVTMTEDTSTDTAYMELSSLRSEDTAVYYCLTSTGRQGKGVRGWDYYYGMDVWGQGTTVTVSS
VL: QSVVTQPPSVSGAPGQRVTISCTGSSSNIGAGYDVHWYQQLPGTAPKLLIYGNSNRPSGVPDRFSGSKSGTSASLAITGLQAEDEADYYCQSYDSSLSGWVFGGGTKLTVL
notes: Whole human IgG1-TM (L234F/L235E/P331S)
For B3, the binding result in assay [1], in [2], in [3], in [4], in [5] and in [6] was “no binding” each time. The binding result is recorded as “no binding (tested: 10 µg/mL (single concentration))” in assay [7], “no binding (tested: 10 µg/mL (single concentration))” in assay [8] and “binds” in [9].

B4: LX5140092_N>D IgG1-TM (antibody, V domains shown)
VH: QVQLVQSGAEVKKPGASVKVSCKVSGYTLTELSMHWVRQAPGKGLEWMGGFDPEDWKYHLSQKFQGRVTMTEDTSTDTAYMELSSLRSEDTAVYYCATPDGTHQGGVRGWDYYYGMDVWGQGTTVTVSS
VL: QSVVTQPPSVSGAPGQRVTISCTGSSSNIGAGYDVHWYQQLPGTAPKLLIYGNSNRPSGVPDRFSGSKSGTSASLAITGLQAEDEADYYCQSYDSSLSGWVFGGGTKLTVL
notes: Whole human IgG1-TM; Heavy chain N96D (Kabat) variant of LX5140092; also called LX5140092_D
B4: the binding result in [1], in assay [2], in assay [3], in assay [4], in assay [5] and in [6] was “no binding” throughout. The binding result is given as “no binding (tested: 10 µg/mL (single concentration))” in assay [7], “no binding (tested: 10 µg/mL (single concentration))” in [8] and “binds” in assay [9].

B5: LX5140093_N>D IgG1-TM (antibody, V domains shown)
VH: QVQLVQSGAEVKKPGASVKVSCKVSGYTLTELSMHWVRQAPGKGLEWMGGFDPEDWAYHQAQKFQGRVTMTEDTSTDTAYMELSSLRSEDTAVYYCATPDGQQGKGVRGWDYYYGMDVWGQGTTVTVSS
VL: QSVVTQPPSVSGAPGQRVTISCTGSSSNIGAGYDVHWYQQLPGTAPKLLIYGNSNRPSGVPDRFSGSKSGTSASLAITGLQAEDEADYYCQSYDSSHRAWAFGGGTKLTVL
notes: Whole human IgG1-TM; Heavy chain N96D (Kabat) variant of LX5140093; also called LX5140093_D
Consider B5, for which the binding result in assay [1], in assay [2], in assay [3], in assay [4], in assay [5] and in assay [6] was “no binding” in each case. The binding result in assay [7], in assay [8] and in [9] was “no binding (tested: 10 µg/mL (single concentration))” each time.
